CN114958811A
Where two headings read alike, the source gives them in different places.

Legend:
[1] = target: RBD-Fc (义翘神州 40592-V05H) (SARS-CoV-2) (UniProt P0DTC2)
[2] = target: RBD-Fc (义翘神州 40592-V05H) (SARS-CoV-2) (UniProt P0DTC2); remark: listed apart in the source

hACE2-Fc融合蛋白 (fusion of the human ACE2 extracellular domain with the Fc fragment of human IgG1) (Fc fusion)
IC50 [1]: 5.02 nM
IC50 [2]: 7.6 nM
